Patent US7129055
Where “and” joins values, the source holds several entries; their conditions need not be identical. Equal entries are not always repeated.

Each substance was assayed against C-C Chemokine Receptor 5 (CC-CKR5) (human) (UniProt P51681) (assay: cell-based or functional assay).

Substance	reduction of infection of HeLa cells expressing CD4 and CC-CKR-5 by macrophage-tropic virus; mixture of chemokines	sensitivity of 293T cells co-expressing CD4 and CC-CKR-5 to infection by pseudotyped luciferase reporter virus (orders of magnitude)
RANTES (from UniProt P13501 24-91) (ligand)	70% and 80%	–
MIP-1α (from UniProt P10147 23-92) (ligand)	80% and 70%	–
MIP-1β (from UniProt P13236 24-92) (ligand)	70% and 80%	–
JRFL Env (macrophage-tropic HIV-1 envelope glycoprotein)	–	3 and 4
BaL Env (macrophage-tropic HIV-1 envelope glycoprotein)	–	3 and 4
ADA Env (macrophage-tropic HIV-1 envelope glycoprotein)	–	3 and 4
